# B1: HR1 (heptad repeat 1) region of the MHV A59 spike protein, residues 968-1027 (domain or fragment)
# chain: ENQKMIASAFNNALGAIQDGFDATNSALGKIQSVVNANAEALNNLLNQLSNRFGAISASL
# B2: nMHV 2-Helix (new construct of the MHV fusion core: shortened HR1, 22-residue linker, HR2) (domain or fragment)
# chain: ENQKMIASAFNNALGAIQDGFDATNSALGKIQSVVNANAEALNNLLNQLSLVPRGSGGSGGSGGLEVLFQGPDLSLDFEKLNVTLLDLTYEMNRIQDAIKKLNESYINLKE
# B3: shortened HR1 region of the MHV A59 spike protein, residues 968-1017 (domain or fragment)
# chain: ENQKMIASAFNNALGAIQDGFDATNSALGKIQSVVNANAEALNNLLNQLS
# Tests used:
# crystal structure [1] = target: the molecule itself; assay: crystal structure
# crystal structure [2] = target: the molecule itself; assay: crystal structure; remark: listed apart in the source
Protein,stoichiometry N (crystal structure [1]),binding result (crystal structure [2])
B1,3,
B2,,binds
B3,,binds

# — article PMC7982547 (The Journal of Biological Chemistry, 2004)
